One may read the stoichiometry N as a count of units in the complex or per binding partner.

These results are taken from article PMC4449314.

Like-named read-outs stand apart in the source and are kept apart here.

Common to all, as to test: non-reducing SDS-PAGE of disulfide-linked products after anti-HA IP
In assay [1] the target is HA-tagged human DAP12 aspartic acid-to-glutamic acid mutant (human).
In assay [2] the target is HA-tagged human DAP12 threonine-to-alanine mutant (human).
Assay [3] deals with HA-tagged human DAP12 aspartic acid-to-asparagine mutant (human).
Assay [4] has the same target. This is another data set of the same source.
Assay [5] concerns the target HA-tagged human DAP12 aspartic acid-to-alanine mutant (human).
For assay [6], the target named is HA-tagged human DAP12 aspartic acid-to-glutamine mutant (human).

“HA-tagged human DAP12 aspartic acid-to-glutamic acid mutant (natural protein)” returned a stoichiometry N in assay [1] of 2.
For the substance “HA-tagged human DAP12 threonine-to-alanine mutant (natural protein)”, in assay [2], the fold decrease of trimer compared to WT was found to be 5 fold, the fold increase of tetramer compared to WT is 2 fold and the stoichiometry N was found to be 2.
Turning to “HA-tagged human DAP12 aspartic acid-to-asparagine mutant (natural protein)”, the stoichiometry N in assay [3] amounted to 3; in assay [4], 2.
In assay [5], “HA-tagged human DAP12 aspartic acid-to-alanine mutant (natural protein)” registered a fold reduction of tetramer compared to WT of 2 fold, a fold reduction of trimer compared to WT of 10 fold and a stoichiometry N of 2.
In assay [6], “HA-tagged human DAP12 aspartic acid-to-glutamine mutant (natural protein)” showed a stoichiometry N of 2.
